According to patent US20180149638A1:

Molecular target: pBIND-ASK1N (DNA binding domain fused to ASK1 N-terminal 1-678 aa, CheckMate mammalian two-hybrid system) (Homo sapiens (Human)) (UniProt Q99683)
Experiment: cell-based or functional assay

UniProt Q99683, sequence (Q99683 other isoform, or with tags, fused parts or gaps limits assumed, form in doubt): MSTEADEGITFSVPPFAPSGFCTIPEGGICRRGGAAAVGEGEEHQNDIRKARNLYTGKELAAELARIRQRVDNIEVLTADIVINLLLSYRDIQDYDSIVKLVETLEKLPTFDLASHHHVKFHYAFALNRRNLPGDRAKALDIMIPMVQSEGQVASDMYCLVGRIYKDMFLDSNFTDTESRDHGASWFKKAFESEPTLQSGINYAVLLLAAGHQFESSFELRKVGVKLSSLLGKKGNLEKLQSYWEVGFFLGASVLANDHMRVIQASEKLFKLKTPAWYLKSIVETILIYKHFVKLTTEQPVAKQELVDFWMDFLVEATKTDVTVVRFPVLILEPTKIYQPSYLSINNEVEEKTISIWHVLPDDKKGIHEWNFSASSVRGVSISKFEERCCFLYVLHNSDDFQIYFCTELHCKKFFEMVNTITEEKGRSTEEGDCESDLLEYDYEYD

pACT-ASK1N (transcriptional activation domain fused to ASK1 N-terminal 1-678 aa, CheckMate mammalian two-hybrid system) (from UniProt Q99683 1-678)
ratio of RLU value of firefly luciferase to RLU value of Renilla luciferase, group A (no peptide): 1.9
